Reference: patent US20140023585A1, “177 LUTETIUM-LABELED BOMBESIN ANALOGS FOR RADIOTHERAPY” (UNIVERSITATSSPITAL BASEL, priority 2010, published 2014)

Tested on: PC-3 tumors
Experiment: in vivo
Conditions: i.v.
Procedure: Biodistribution was investigated in NMRI nude mice bearing subcutaneous PC-3 tumors in the right hind limb at different time-points. Body weight of the male mice was approx. 30 g, 3 animals were investigated per time-point. After injecting an intravenous dose into the tail vein, mice were sacrificed at indicated time points and dissected organs were analyzed by radioactive counting. An administration dose of 100 μL was applied per animal with a mean activity of 86 kBq.
At indicated time points urine and feces were quantitatively collected. At the same time points, animals were sacrificed and exsanguinations under isoflurane anesthesia and the following organs and tissues were removed for measurement of [^177Lu] using the gamma-counter: spleen, liver, gallbladder, kidneys, lung, femur, heart, brain, fat, thyroid, muscle, skin, blood, tail, stomach (without content), prostate, intestine (with content), pancreas, adrenals, and the remaining body (designated as carcass).
Whole organs and tissues or aliquots were weighted and measured in a gamma-counter for radioactivity. In order to get the amount of total radioactivity administered in each animal (=100%) 3 aliquots (100 μL each) of the injected solution were always measured in parallel. The results of the biodistribution and excretion are reported as percent of injected dose per gram of tissue (% ID/g) and percent of injected dose per organ (% ID), respectively. All data are given as mean value±standard deviation, which were calculated by using all animals per time and sample.

For `CC(C)C[C@H](NC(=O)C[C@H](O)[C@H](CC(C)C)NC(=O)[C@H](Cc1c[nH]cn1)NC(=O)CNC(=O)[C@@H](NC(=O)[C@H](C)NC(=O)[C@H](Cc1c[nH]c2ccccc12)NC(=O)[C@H](CCC(N)=O)NC(=O)[C@@H](Cc1ccccc1)NC(=O)CN1CCC(NC(=O)CN2CCN(CC(=O)O)CCN(CC(=O)O)CCN(CC(=O)O)CC2)CC1)C(C)C)C(N)=O` [compound 2, [^177Lu]-DOTA-4-amino-1-carboxymethylpiperidine-D-Phe-Gln-Trp-Ala-Val-Gly-His-Sta-Leu-NH2, metal not drawn], the “% ID Gallbladder” value (1.0 h p.a.) was 0.000 % ID, the “% ID/g Kidney” value (1.0 h p.a.) was 1.72 (±0.45) % ID/g and the “% ID/g Tumor” value (1.0 h p.a.) was 5.60 (±1.66) % ID/g. For the same molecule, the “% ID Gallbladder” value (4.0 h p.a.) was 0.000 % ID, the “% ID/g Kidney” value (24.0 h p.a.) was 0.57 (±0.21) % ID/g and the “% ID/g Liver” value (24.0 h p.a.) was 0.05 (±0.01) % ID/g. The “% ID/g Tumor” value (24.0 h p.a.) was 6.06 (±1.53) % ID/g.
